Test results from US20250180582A1 (XIAMEN INNOBIOMAX BIOTECHNOLOGY, published 2025).

T1: pCold-TF-GPR37-1-265 extracellular segment protein (human, UniProt O15354 27-265)
T1 construct: also called Antigen 3; not shown: TF fusion partner encoded by the pCold-TF vector
T1 sequence: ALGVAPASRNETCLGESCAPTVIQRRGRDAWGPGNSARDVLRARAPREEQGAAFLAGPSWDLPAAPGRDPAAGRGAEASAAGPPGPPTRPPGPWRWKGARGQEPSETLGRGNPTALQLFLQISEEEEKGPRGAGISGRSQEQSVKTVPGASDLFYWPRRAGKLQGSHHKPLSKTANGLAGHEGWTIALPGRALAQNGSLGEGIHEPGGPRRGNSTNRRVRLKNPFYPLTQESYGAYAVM

T2: pCold-TF-GPR37-1-613 full-length antigen (human, UniProt O15354 27-613)
T2 construct: Target fragment of Antigen 1 moved into the pCold-TF expression vector; also called Antigen 2; not shown: TF fusion partner encoded by the pCold-TF vector
T2 sequence: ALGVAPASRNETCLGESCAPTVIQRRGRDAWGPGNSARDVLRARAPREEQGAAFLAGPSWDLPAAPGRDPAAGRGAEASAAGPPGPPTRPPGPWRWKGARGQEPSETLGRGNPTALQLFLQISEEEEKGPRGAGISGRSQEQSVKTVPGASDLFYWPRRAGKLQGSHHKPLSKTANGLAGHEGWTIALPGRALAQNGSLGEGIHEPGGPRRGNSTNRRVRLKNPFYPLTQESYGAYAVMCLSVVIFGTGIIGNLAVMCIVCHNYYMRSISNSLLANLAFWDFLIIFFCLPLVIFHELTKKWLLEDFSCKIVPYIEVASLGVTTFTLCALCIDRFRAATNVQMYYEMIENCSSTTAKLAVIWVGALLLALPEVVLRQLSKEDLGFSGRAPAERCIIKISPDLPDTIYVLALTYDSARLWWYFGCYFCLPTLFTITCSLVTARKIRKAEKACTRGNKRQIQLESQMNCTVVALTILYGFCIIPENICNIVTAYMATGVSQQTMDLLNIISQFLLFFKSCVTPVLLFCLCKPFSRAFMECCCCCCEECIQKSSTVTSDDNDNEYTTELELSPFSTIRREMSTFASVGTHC

T3: pET-32a-GPR37-1-613 full-length antigen (human, UniProt O15354 27-613)
T3 construct: Expressed in Escherichia coli from pET-32a and purified; also called Antigen 1; not shown: fusion partner/tags encoded by the pET-32a vector
T3 sequence: T2 sequence

B1: monoclonal antibody 6D2 (antibody, IgG2a, V domains shown)
VH: EVMLVESGGGLVKPGGSLKLSCAASGFIFSSQAMSWVRQIPEKRLEWVATISSGGSYTYYPDSVKGRFTISRDNAKNTLYLQMSSLTSEDTAMYYCARQRDFGRYYGYDPFFDFWGQGTTLTF
VL: EIVLTQSPTTMAASPGEKITITCSASSSISSNYLHWYQQKPGFSPKLLIYRTSNLPSGVPARFSGSGSGTSYSLTIGTMEAEDVATYYCQQGSSVPRITFGAGTKLE
notes: Mouse hybridoma antibody; also called mAb 6D2
B2: monoclonal antibody 5A2 (antibody, IgG2a, V domains shown)
VH: EVKLVESGGGLVQPGGSLRLSCATSGFIFSDYYMSWVRQPPGKALEWLGYIRNKAKRYTTEYNASVKGRFTISRDNSQNILYLQMNTLRAEDSATYYCARDTSDYDRFAYWGQGTLVTVSA
VL: DIVMTQTPLSLPVSLGDHASLSCKSSQSLVHRNGNTYLHWFLQKPGQSPKLLIYKVSNRFSGVPDRFSGSGSGTDFTLKISRVEAADLGVYFCSQSTLLPYTFGGGTKLEIK
notes: Mouse hybridoma antibody; also called mAb 5A2; 5A2-HRP

Assays:
Test in all cases: indirect ELISA, cell supernatant, antigen coated 200 ng/mL
[1] = target: T1, pCold-TF-GPR37-1-265 extracellular …
Procedure: (§1) 3.6 Screening of hybridomas: Antigen 1 was used for primary screening, and two antigens that were also fused to pET-32a were used as accessory means for differential screening, in which both antigens were from Inbermax (Catalog No.: E11024, Catalog No.: E1212), and the self-made recombinant Antigen 2 and Antigen 3 were used at the same for identification. The screening method was an indirect ELISA, and its specific steps comprised: the plate was coated with the antigen at 200 ng/mL, 100 ul per well, added with 50 μL of cell supernatant, incubated at 37° C. for 30 minutes, washed 5 times with a plate washer, added with 100 ul of GAM-HRP prepared at 1:5K, incubated at 37° C. for 30 minutes, washed 5 times with a plate washer, added with a chromogenic solution at 100 ul/well, incubated at 37° C. for 15 minutes, added with a stop solution to terminated the reaction, and placed in a microplate reader to read signal values using dual wavelengths. Based on the experimental results, the cells in the corresponding positive wells were selected for the next step work.
(§2) 3.7 Cloning of hybridoma cells: Using the limiting dilution method, the cells were first diluted in gradient at certain concentrations, and then inoculated into each well of a 96-well cell culture plate, so that only one cell grew in the well as much as possible. The hybridoma monoclonal positive cell line was repeatedly cloned at least 3 times, and were confirmed as a stable clone after the final round was 100% positive. The positive standards were as described in 3.6.

[2] = target: T4, antigen fused to pET-32a from Inbermax, Catalog No.: E11024
T4 construct: Used for differential screening against the pET-32a fusion part
Procedure: as §1, §2

[3] = target: T2, pCold-TF-GPR37-1-613 full-length antigen
Procedure: as §1, §2

[4] = target: T5, antigen fused to pET-32a from Inbermax, Catalog No.: E1212
T5 construct: Used for differential screening against the pET-32a fusion part
Procedure: as §1, §2

[5] = target: T3, pET-32a-GPR37-1-613 full-length antigen
Procedure: as §1, §2

Row | Binder | ELISA signal [1] [OD] | ELISA signal [2] [OD] | ELISA signal [3] [OD] | ELISA signal [4] [OD] | ELISA signal [5] [OD]
1 | B1 | 3.54 | 0.009 | 2.81 | 0.01 | 3.37
2 | B2 | 3.37 | 0.008 | 6.24 | 0.011 | 2.83
